Laboratory results: patent publication US20210284724A1 (I MAB BIOPHARMA US, published 2021)

T1: mouse CXCL13 (mouse, UniProt O55038 22-109)
T1 construct: also called rmCXCL13
T1 sequence (looked up): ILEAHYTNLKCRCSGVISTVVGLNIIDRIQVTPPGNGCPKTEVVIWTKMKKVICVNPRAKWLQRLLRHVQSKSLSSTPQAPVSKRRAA

T2: human CXCL13 (human, UniProt O43927 23-109)
T2 construct: also called huCXCL13; rhCXCL13
T2 sequence (looked up): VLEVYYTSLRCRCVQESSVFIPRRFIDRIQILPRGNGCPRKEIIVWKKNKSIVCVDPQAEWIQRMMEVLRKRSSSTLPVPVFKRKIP

T3: cynomolgus CXCL13 (cynomolgus, UniProt H6WS58 23-109)
T3 construct: also called cynoCXCL13; Cyno CXCL13
T3 sequence: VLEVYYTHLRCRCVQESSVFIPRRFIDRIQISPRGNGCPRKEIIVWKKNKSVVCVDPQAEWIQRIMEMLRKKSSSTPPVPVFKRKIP


Experiments:
mouse CXCL13 = target: T1, mouse CXCL13; experiment: ELISA, coated antigen
human CXCL13 [1] = target: T2, human CXCL13; experiment: ELISA, coated antigen
cynomolgus CXCL13 = target: T3, cynomolgus CXCL13; experiment: ELISA, coated antigen
human CXCL13 [2] = target: T2, human CXCL13; experiment: cell-based blocking ELISA, CXCL13 to CHO-K1-CXCR5
Description: Splenocytes were electro-fused with mouse myeloma cell line SP2/0 cells and plated into 96-well culture plate. The hybridoma supernatants were tested by ELISA binding assay for anti-human CXCL13 binders. Supernatants of positive binding clones were screened for function in blocking of human CXCL13 binding to its […] CXCR5 by Cell-based receptor blocking ELISA assay. Briefly, 5×10⁴ CHO-K1-CXCR5 cells were plated in 96-well plate with 100 μl of culture medium and incubated at 37° C. overnight. Cells were fixed with 100 μl of 2% PFA at RT for 1 hr after washing with PBS for 1 time. Blocking was done with 1% BSA in PBST for 1 hr at RT. Supernatants were diluted with PBS and pre-incubated with equal volume of 0.3 μg/ml human CXCL13 for 30 min at RT. 100 μl of antibody-antigen complex was then transferred into each cell wells for 30 min at RT. The samples were washed with 1×PBST for 3 times and 100 μl of 3 μg/ml of human Mab5261 antibody was add into each well to capture human CXCL13 and anti-human Fc-HRP was used to indirectly detect human CXCL13 when it bound to CHO-K1-CXCR5 cells. […] Reading was done at […].
Those antibodies were purified from hybridoma supernatants by binding with Protein G column and characterized by ELISA binding assays and cell-based blocking ELISA assays. […] 11/20 clones bound to both human CXCL13 and cynomolgus CXCL13 appeared to completely block human CXCL13 to human CXCR5. 11 blockers bound to both huCXCL13 and cynoCXCL13 were produced as chimeric human IgG1 antibodies for further Characterization.

Binder | binding result (mouse CXCL13) | EC50 (human CXCL13 [1]) | EC50 (cynomolgus CXCL13) | IC50 (human CXCL13 [2]) | EC50 (mouse CXCL13) | binding result (cynomolgus CXCL13)
1H3A11 (antibody, V domains shown, Hybridoma mAb) VH: EVQLVESGGGLVKPGGSLKLSCAASGFTFSSYAMSWVRQTPEKRLEWVATISDGGSDTYYPDNVKGRFTISRDNAKNNLYLQMSHLKSEDTAMYYCARDYYGSSYEDYAMDYWGQGTSVTVSS VL: DIQMTQSPSSLSASLGGKVTITCKASQDINKYITWYQHKPGKGPRLLIHYTSTLQPGIPSRFSGSGSGRDYSFSISNLEPEDIATYYCLQYDNLYTFGGGTKLEIK | no binding | 0.0633 µg/mL | 0.145 µg/mL | 10.1 µg/mL |  | 
430D9B3 (antibody, V domains shown, Hybridoma mAb) VH: QVTLKESGPEILQPSQTLSLTCTFSGFSLSPYGMGVGWIRQPSGKGLEWLANIWWDDDKYYNPSLINRLTISKDTSNNQAFLKITNVDTTDSATYYCVRSELVMPYVPFDYWGQGVMVTVSS VL: DIQMTQSPSSMSASLGDRVTITCQASQDIENDLIWFQQKPGKSPRPLIYYATNLANGVPSRFSGRRSESNYSLTISSLESEDMADYHCLQFKQYPYTFGAGTKLELK |  | 0.0265 µg/mL |  | 3.85 µg/mL | 0.0547 µg/mL | no binding
424H7F2 (antibody, V domains shown, Hybridoma mAb; also called surrogate anti-CXCL13 antibody) VH: QVTLKESGPEILQPSQTLTLTCTFSGFSLSPYGMGVGWIRQPSGKGLEWLANIWWDDDKYYNPSLINRLTISKDTSNNQAFLKITNVDTTDSATYYCVRSELVMPYVPFDYWGQGVMVTVSS VL: DIQMTQSPSSMSASLGDRVTITCQASQDIENDLIWFQQKPGKSPRPLIYYATNLANGVPSRFSGRRSESNYALTISSLESEDMADYHCLQFKQYPYTFGAGTKLELK |  | 0.0109 µg/mL |  | 1.1 µg/mL | 0.0121 µg/mL | no binding
416C9H8 (antibody, V domains shown, Hybridoma mAb) VH: QVTLKESGPEILQPSQTLSLTCTFSGFSLSPYGMGVGWIRQPSGKGLEWLANIWWDDDKYYNPSLINRLTISKDTSNNQAFLKITNVDTTDSATYYCVRSELVMPYVPFDYWGQGVMVTVSS VL: DIQMTQSPSSMSASLGDRVTITCQASQDIENDLVWFQQKPGRSPRPLIYYATNLANGVPSRFSGRRSESDYSLTISSLESEDMADYHCLQFKQYPYTFGAGTKLELK |  | 5.84 µg/mL |  | 8.46 µg/mL | 1.97 µg/mL | no binding
414D10F5 (antibody, V domains shown, Hybridoma mAb) VH: EVQLAESGGGLVQPGRSLKLSCSASGFTFSDYYMAWFRQAPPKGLEWVASISYDGGDSFYRDSVKGRFTISRDNAKSSLYLQMDSLRSEDTATYYCTTEEDYSGSFPDYWGQGVMVTVSS VL: DIQMTQSPSFLSASVGDRVTINCKASQNINKYLNWYQQKLGEAPKRLIYDTNNLQAGIPSRFSGSGSGTDYTLTINSLQPEDFATYFCLQHNSLYTFGGGTKLELK | no binding | 0.0104 µg/mL | 0.019 µg/mL | 1.14 µg/mL |  | 
368D6D10 (antibody, V domains shown, Hybridoma mAb) VH: DVQLQESGPGLVKPSQSLSLTCTVTGYSITSDYAWNWIRQFPGNKLEWMGYISYSGSTSYNPSLKSRISITRDTSKNQFFLQLNSVTTEDTATYYCVAGHFDYWGQGTTLTVSS VL: not shown | no binding | 0.0864 µg/mL | 0.14 µg/mL |  |  | 
397C3B3 (antibody, V domains shown, Hybridoma mAb) VH: DVQLQESGPGLVKPSQSLSLTCTVTGYSITSDYAWNWIRQFPGNKLEWMGYISYSGSTSYNPSLKSRISINRDTSKNQFFLQLNSVTTEDTATYYCVAGHFDYWGQGTTLTVSS VL: not shown | no binding | 0.344 µg/mL | 0.401 µg/mL |  |  | 
367F1C2 (antibody, V domains shown, Hybridoma mAb) VH: DVQLQESGPGLVKPSQSLSLTCTVTGYSITSDYAWNWIRHFPGNKLEWMGYISYTGSSSYNPSLKSRISITRDTSKNQFFLQLNSVTSEDTATYYCVAGHFDYWGPGTTLTVSS VL: not shown | no binding | 0.0668 µg/mL | 0.0557 µg/mL |  |  | 
353F9C4 (antibody, V domains shown, Hybridoma mAb) VH: DVQLQESGPGLVKPSQSLSLTCTVTGYSITSDYAWSWIRQFPGNKLEWMGYITYSDSTSYNPSLKSRISITRDTSKNQFFLQLNSVTAEDTATYYCAAGHFDYWGQGTILTVSS VL: not shown | no binding | 0.135 µg/mL | 0.172 µg/mL |  |  | 
348E12F12 (antibody, V domains shown, Hybridoma mAb) VH: DVQLQESGPGLVKPSQSLSLTCTVTGYSITSDYAWNWIRQFPGNKLEWMGYISYSGDTSYNPSLKSRISITRDTSKNQFFLQLNSVTTEDTATYYCVAGHFDYWGQGTTLTVSS VL: not shown | no binding | 0.0636 µg/mL | 0.0765 µg/mL |  |  | 
355A1F6 (antibody, V domains shown, Hybridoma mAb) VH: DVQLQESGPGLVKPSQSLSLTCTVTGYSITSDYAWSWIRQFPGNKLEWMGYISYSDSTSYNPSLKSRISITRDTSKNQFFLQLNSVTAEDTATYYCAAGHFDYWGQGTILTVSS VL: not shown | no binding | 0.0943 µg/mL | 0.154 µg/mL |  |  | 
329F2E1 (antibody, V domains shown, Hybridoma mAb) VH: EVKLLQSGGGLVQPGGSLKLSCAASGIDFSRYWMSWVRRAPGKGLEWIGEINPDSSTINYAPSLKDKFIISRDNAKNTLYLQMSKVRSEDTALYYCARQDDYDYYAMDYWGQGTSVTVSS VL: DIVMTQSHKFMSTSVGDRVSITCKASQDVSTGVAWYQQKPGQSPKLLIYSASYRYTGVPDRFTGSGSRTDFTFTISSVQTEDPAVYYCHQYYTIPLTFGAGTELELK | no binding | 0.0166 µg/mL | 0.0125 µg/mL | 0.615 µg/mL |  | 
71F4A3 (antibody, V domains shown, Hybridoma mAb) VH: EVKLLQSGGGLVQPGGSLKLSCAASGIDFSRYWMSWVRRAPGKGLEWIGEINPDSSTINYAPSLKDKFIISRDNAKNTLYLQMSKVRSEDTALYYCARQDDYEYYAMDYWGQGTSVTVSS VL: DIVMTQSHKSMSTSVGDRVSITCKASQDVNTGVAWYRQKPGQSPKLLIYSASYRYTGVPDRFTGSGSGTDFTFTISSVQAEDLAVYYCQQYYSTPLTFGAGTKLELK | no binding | 0.0266 µg/mL | 1.01 µg/mL | 3.02 µg/mL |  | 
178B2E8 (antibody, V domains shown, Hybridoma mAb) VH: EVKLVESEGGLVQPGSSMKLSCTASGFTFTDYYMTWVRQVPEKGLEWVANINYDGSRTNYLDSLKSRFIISRDNAKNILYLQMSSLKSEDTATYYCARDGNYHFYGMDYWGQGTSVTVSS VL: DFVLTQSHKFMSTSVGDRVSITCKASQDVSTAVAWYQQKPGQSPQLLIYWASTRHTGVPDRFTGSGSGTDYTLTISSVQAEDLALYYCQQHYSTPWTFGGGTKLEIK | no binding | 0.42 µg/mL |  |  |  | no binding
348B10B1 (antibody, V domains shown, Hybridoma mAb) VH: EVQLQQSGPELVKPGASVKISCKTSGYTFTEYIMHWVKQSHGRSLEWIGGINPDNGDTTYNQKFKGKATLTVDKSSTTAYMELRSLTSEDSAVYYCAGGVLDYWGQGTSVTVSS VL: not shown | no binding | 0.0124 µg/mL | 0.0166 µg/mL |  |  | 
360A3D4E3 (antibody, V domains shown, Hybridoma mAb) VH: EVQLQQSGPELVKPGASVKISCKTSGYTFTEYIMHWVKQSHERSLEWIGGIHPDNGDTTYNQKFTGKATLTVDKSSTTAYMELRSLTSEDSAVYYCAGGVLDYWGQGTSVTVSS VL: not shown | no binding | 0.00664 µg/mL | 0.0178 µg/mL |  |  | 
339H3E2 (antibody, V domains shown, Hybridoma mAb) VH: EVQLQQSGPELVKPGASVKISCKTSGYTFTEYIMHWVKQSHGRSLEWIGGINPNNGGTTYNQKFKGKATLTVDKSSSTAYMELRSLTSEDSAVYYCAGGVMDYWGQGTSVTVSS VL: not shown | no binding | 0.0388 µg/mL | 0.0319 µg/mL |  |  | 
